According to the supplement of paper PMC9112550, “Optimization of the antimicrobial peptide Bac7 by deep mutational scanning” (BMC Biology, 2022):

test system: Escherichia coli TOP10; assay: shrunken log2 fold change of peptide-encoding DNA abundance (4.5 h post-induction vs induction); higher = less antimicrobial activity (less host growth inhibition); details: time post-induction: 4.5 h; library: site-saturation at positions 5, 18, 19, 20
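Note: peptides expressed intracellularly from a pBAD plasmid library in pooled LB shake-flask culture, induced with 0.3% L-arabinose, DNA abundance read by NGS, three biological replicates, DESeq2 with apeglm shrinkage.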

First: RRIRSRPPRLPRPRPRPWRVPRP
Second: RRIRWRPPRLPRPRPRPYSAPRP
The “shrunken log2 fold change” value of the first is higher: 0.108 for the first, -0.147 for the second.

Compared with RRIRSRPPRLPRPRPRPGAPPRP, RRIRFRPPRLPRPRPRPICDPRP is lower in “shrunken log2 fold change” value: 0.613 for the first, 0.0526 for the second.

Going from RRIRPRPPRLPRPRPRPKMFPRP to RRIRARPPRLPRPRPRPDSSPRP, the “shrunken log2 fold change” value rises from 0.149 to 0.371.

RRIRYRPPRLPRPRPRPKTKPRP and RRIRERPPRLPRPRPRPWRDPRP are within 0.2 log units of each other in “shrunken log2 fold change” value: -0.295 for the first, -0.268 for the second.

Going from RRIRNRPPRLPRPRPRPNPKPRP to RRIRIRPPRLPRPRPRPQIVPRP, the “shrunken log2 fold change” value falls from 0.284 to -0.167.

Going from RRIRKRPPRLPRPRPRPFAQPRP to RRIRSRPPRLPRPRPRPLTDPRP, the “shrunken log2 fold change” value falls from 0.177 to -0.162.

Going from RRIRKRPPRLPRPRPRPMFVPRP to RRIRQRPPRLPRPRPRPWFPPRP, the “shrunken log2 fold change” value falls from 0.426 to -0.156.

Compared with RRIRGRPPRLPRPRPRPRFLPRP, RRIRCRPPRLPRPRPRPKFCPRP is lower in “shrunken log2 fold change” value: 0.448 for the first, -0.0358 for the second.

Going from RRIRCRPPRLPRPRPRPIYAPRP to RRIRCRPPRLPRPRPRPDYNPRP, the “shrunken log2 fold change” value falls from -0.281 to -0.571.

Going from RRIRIRPPRLPRPRPRPKYWPRP to RRIRVRPPRLPRPRPRPDIGPRP, the “shrunken log2 fold change” value rises from -0.678 to -0.173.

First: RRIRGRPPRLPRPRPRPLTRPRP
Second: RRIRGRPPRLPRPRPRPRPRPRP
The “shrunken log2 fold change” value of the first is lower: 0.803 for the first, 1.31 for the second.

Compared with RRIRDRPPRLPRPRPRPRSPPRP, RRIRRRPPRLPRPRPRPWPTPRP is higher in “shrunken log2 fold change” value: -0.183 for the first, 0.0393 for the second.

Going from RRIRDRPPRLPRPRPRPWYFPRP to RRIRSRPPRLPRPRPRPDNVPRP, the “shrunken log2 fold change” value rises from -0.327 to 4.24.

Compared with RRIRTRPPRLPRPRPRPEIEPRP, RRIRGRPPRLPRPRPRPEGLPRP is higher in “shrunken log2 fold change” value: -0.299 for the first, 1.06 for the second.

Going from RRIRCRPPRLPRPRPRPHFIPRP to RRIRVRPPRLPRPRPRPWAHPRP, the “shrunken log2 fold change” value rises from -0.528 to -0.0201.

Compared with RRIRRRPPRLPRPRPRPMSEPRP, RRIRSRPPRLPRPRPRPSRMPRP is lower in “shrunken log2 fold change” value: 0.0166 for the first, -0.205 for the second.

First: RRIRARPPRLPRPRPRPYNTPRP
Second: RRIRQRPPRLPRPRPRPVGIPRP
The “shrunken log2 fold change” value of the first is lower: -0.606 for the first, -0.0511 for the second.

RRIRRRPPRLPRPRPRPRLMPRP and RRIRRRPPRLPRPRPRPRCLPRP are within 0.2 log units of each other in “shrunken log2 fold change” value: 0.316 for the first, 0.219 for the second.

Compared with RRIRVRPPRLPRPRPRPDHAPRP, RRIRSRPPRLPRPRPRPHHWPRP is lower in “shrunken log2 fold change” value: 0.27 for the first, -0.221 for the second.

First: RRIRCRPPRLPRPRPRPSYVPRP
Second: RRIRFRPPRLPRPRPRPTYLPRP
The “shrunken log2 fold change” value of the first is lower: -0.786 for the first, -0.243 for the second.

Compared with RRIRPRPPRLPRPRPRPHNIPRP, RRIRCRPPRLPRPRPRPWTWPRP is higher in “shrunken log2 fold change” value: -0.546 for the first, 0.00573 for the second.

RRIRHRPPRLPRPRPRPYTCPRP and RRIRWRPPRLPRPRPRPLSVPRP are within 0.2 log units of each other in “shrunken log2 fold change” value: -0.0278 for the first, 0.0836 for the second.

Going from RRIRVRPPRLPRPRPRPPVEPRP to RRIRGRPPRLPRPRPRPVHHPRP, the “shrunken log2 fold change” value falls from 0.424 to -0.0799.

Compared with RRIRKRPPRLPRPRPRPSMSPRP, RRIRQRPPRLPRPRPRPSCLPRP is lower in “shrunken log2 fold change” value: 0.14 for the first, -0.0903 for the second.

Going from RRIRCRPPRLPRPRPRPCIDPRP to RRIRHRPPRLPRPRPRPWFNPRP, the “shrunken log2 fold change” value rises from -0.385 to -0.153.

RRIRYRPPRLPRPRPRPWLFPRP and RRIRARPPRLPRPRPRPMKNPRP are within 0.2 log units of each other in “shrunken log2 fold change” value: 0.0905 for the first, 0.0488 for the second.

First: RRIRGRPPRLPRPRPRPRWYPRP
Second: RRIRYRPPRLPRPRPRPFCDPRP
The “shrunken log2 fold change” value of the first is higher: 0.271 for the first, -0.208 for the second.

First: RRIRQRPPRLPRPRPRPWWGPRP
Second: RRIRERPPRLPRPRPRPFIAPRP
The “shrunken log2 fold change” value of the first is higher: 0.0786 for the first, -0.2 for the second.

Going from RRIRWRPPRLPRPRPRPAMSPRP to RRIRIRPPRLPRPRPRPDSMPRP, the “shrunken log2 fold change” value falls from 0.403 to -0.00884.

Compared with RRIRMRPPRLPRPRPRPTMCPRP, RRIRGRPPRLPRPRPRPEEWPRP is higher in “shrunken log2 fold change” value: 0.674 for the first, 1.7 for the second.

RRIRLRPPRLPRPRPRPWMKPRP and RRIRVRPPRLPRPRPRPVSMPRP are within 0.2 log units of each other in “shrunken log2 fold change” value: -0.249 for the first, -0.066 for the second.
